Measured values: patent US20190016826A1 (Genentech, published 2019)
Substitutions are numbered along the chain they refer to.

T1: HuHtrA1_PD(V201A) (human, UniProt F1N152 168-386 (bovine entry))
T1 construct: Alanine mutant of HuHtrA1_PD; also called HuHtrA1 mutant V201A; not shown: thrombin cleavage site
T1 chain: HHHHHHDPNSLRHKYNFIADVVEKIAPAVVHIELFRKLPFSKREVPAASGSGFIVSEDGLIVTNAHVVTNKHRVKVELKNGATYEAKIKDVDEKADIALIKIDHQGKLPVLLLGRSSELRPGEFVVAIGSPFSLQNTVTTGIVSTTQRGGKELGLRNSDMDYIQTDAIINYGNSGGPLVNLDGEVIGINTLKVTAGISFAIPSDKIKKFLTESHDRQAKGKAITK

T2: HuHtrA1_PD(K243A) (human, UniProt F1N152 168-386 (bovine entry))
T2 construct: Alanine mutant of HuHtrA1_PD; also called HuHtrA1 mutant K243A; not shown: thrombin cleavage site
T2 chain: T1 chain with A47V, K89A

T3: HuHtrA1_PD(H220A) (human, UniProt F1N152 168-386 (bovine entry))
T3 construct: Alanine mutant of HuHtrA1_PD; also called HuHtrA1 mutant H220A; not shown: thrombin cleavage site
T3 chain: T1 chain with A47V, H66A

T4: HuHtrA1_PD(K225A) (human, UniProt F1N152 168-386 (bovine entry))
T4 construct: Alanine mutant of HuHtrA1_PD; also called HuHtrA1 mutant K225A; not shown: thrombin cleavage site
T4 chain: T1 chain with A47V, K71A

T5: HuHtrA1_PD(E247A) (human, UniProt F1N152 168-386 (bovine entry))
T5 construct: Alanine mutant of HuHtrA1_PD; also called HuHtrA1 mutant E247A; not shown: thrombin cleavage site
T5 chain: T1 chain with A47V, E93A

T6: HuHtrA1_PD(T223A) (human, UniProt F1N152 168-386 (bovine entry))
T6 construct: Alanine mutant of HuHtrA1_PD; also called HuHtrA1 mutant T223A; not shown: thrombin cleavage site
T6 chain: T1 chain with A47V, T69A

B1: IgG94 (anti-HtrA1 antibody YW505.94, IgG format) (antibody, V domains shown)
VH: EVQLVESGGGLVQPGGSLRLSCAASGFNISGYYIHWVRQAPGKGLEWVGWIDPYGGDTNYADSVKGRFTISADTSKNTAYLQMNSLRAEDTAVYYCARGTFLTSWGHYFDYWGQGT
VL: DIQMTQSPSSLSASVGDRVTITCRASQDVSTAVAWYQQKPGKAPKLLIYSASFLYSGVPSRFSGSGSGTDFTLTISSLQPEDFATYYCQQSYTTPPTFGQGTKVEIKR
notes: The VH as printed ends at WGQGT; also called antibody 94; Ab94
B2: YW505.94a.28 IgG (antibody, V domains shown)
VH: B1 VH with N28S
VL: B1 VL with D28S, V29I, S30N, A32Y, V33L, Y92D, T93D
B3: YW505.94a Fab (Fab, V domains shown)
VH: B1 VH with N28S
VL: B1 VL
notes: Tested as Fab
B4: YW505.94a.54 Fab (Fab, V domains shown)
VH: B1 VH with N28S
VL: B1 VL with D28V, S30G, T31N, A32Y, V33L, Y92D, T93D, T94H
B5: YW505.94a.28 Fab (Fab, V domains shown)
VH: B1 VH with N28S
VL: B1 VL with D28S, V29I, S30N, A32Y, V33L, Y92D, T93D

Legend:
[1] = biological target: T1, HuHtrA1_PD(V201A); test: binding ELISA, plate coated with mutant at 1 ug/ml, 20 min incubation
[2] = biological target: T2, HuHtrA1_PD(K243A); test: as above
[3] = biological target: T3, HuHtrA1_PD(H220A); test: as above
[4] = biological target: T4, HuHtrA1_PD(K225A); test: as above
[5] = biological target: T5, HuHtrA1_PD(E247A); test: as above
[6] = biological target: T6, HuHtrA1_PD(T223A); test: as above
[7] = biological target: T7, Full length murine HtrA1 (MuHtrA1) (P24-P480), N-terminal His6 tag (murine, UniProt Q9R118 24-480); test: cell-based or functional assay
T7 sequence (Q9R118 other isoform, or with tags, fused parts or gaps): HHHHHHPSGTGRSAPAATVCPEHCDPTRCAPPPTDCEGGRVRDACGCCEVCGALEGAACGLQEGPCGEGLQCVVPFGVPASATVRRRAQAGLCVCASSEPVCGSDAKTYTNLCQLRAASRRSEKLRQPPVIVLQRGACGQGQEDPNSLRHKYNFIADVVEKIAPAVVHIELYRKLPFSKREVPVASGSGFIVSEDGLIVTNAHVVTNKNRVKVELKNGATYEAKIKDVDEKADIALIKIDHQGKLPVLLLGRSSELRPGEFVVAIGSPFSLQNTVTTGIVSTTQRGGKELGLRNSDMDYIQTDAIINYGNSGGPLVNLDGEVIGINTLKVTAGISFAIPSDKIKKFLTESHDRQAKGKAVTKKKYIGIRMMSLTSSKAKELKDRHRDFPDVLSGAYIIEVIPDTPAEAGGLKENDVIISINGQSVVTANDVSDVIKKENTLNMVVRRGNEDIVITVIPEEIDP

[8] = biological target: T8, Full length human HtrA1 (HuHtrA1) (Q23-P480), N-terminal His6 tag (human, UniProt Q92743 23-480); test: cell-based or functional assay
T8 sequence (Q92743 other isoform, or with tags, fused parts or gaps): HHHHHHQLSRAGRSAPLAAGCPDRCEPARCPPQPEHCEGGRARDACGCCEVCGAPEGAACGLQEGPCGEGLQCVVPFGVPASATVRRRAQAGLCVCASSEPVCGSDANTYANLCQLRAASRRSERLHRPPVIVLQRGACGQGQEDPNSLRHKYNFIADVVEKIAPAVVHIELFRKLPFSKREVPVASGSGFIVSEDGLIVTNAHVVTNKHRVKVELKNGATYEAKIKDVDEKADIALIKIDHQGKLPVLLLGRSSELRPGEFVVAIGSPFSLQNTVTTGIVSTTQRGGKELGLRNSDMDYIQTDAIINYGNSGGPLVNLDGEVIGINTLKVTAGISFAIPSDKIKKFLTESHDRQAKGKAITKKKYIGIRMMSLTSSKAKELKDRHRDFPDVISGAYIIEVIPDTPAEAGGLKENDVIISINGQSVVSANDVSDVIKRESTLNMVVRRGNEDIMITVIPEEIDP

[9] = biological target: Protease domain of human HtrA1 (HuHtrA1_PD), residues D161-K379 (human, UniProt F1N152 168-386 (bovine entry)); test: cell-based or functional assay
Protease domain of human HtrA1 (HuHtrA1_PD), residues D161-K379, sequence (F1N152 other isoform, or with tags, fused parts or gaps): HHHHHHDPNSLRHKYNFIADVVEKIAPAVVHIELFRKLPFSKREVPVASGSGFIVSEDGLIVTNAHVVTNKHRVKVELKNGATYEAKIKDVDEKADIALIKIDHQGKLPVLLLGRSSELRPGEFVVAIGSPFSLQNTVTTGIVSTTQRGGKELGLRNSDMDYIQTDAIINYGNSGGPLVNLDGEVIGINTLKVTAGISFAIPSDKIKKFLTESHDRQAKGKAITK

[10] = biological target: T8, Full length human HtrA1 (HuHtrA1) …; test: cell-based or functional assay; remark: listed apart in the source
[11] = biological target: T7, Full length murine HtrA1 (MuHtrA1) …; test: SPR (BIAcore T100), single-cycle kinetics, biotinylated murine HtrA1 captured on streptavidin, Fab in solution
Source text: (§1) To determine the binding affinity of HtrA1 antibodies by single cycle kinetics, Surface Plasmon Resonance (SRP) measurement with a BIAcore™ T100 instrument was used. Briefly, a series S sensor chip CM5 was activated with EDC and NHS reagents according to the supplier's instructions, and streptavidin (Pierce) was coupled to achieve approximately 2000 response units (RU), followed by blocking un-reacted groups with 1M ethanolamine.
(§2) For kinetics measurements, biotinylated human or murine HtrA1 was first injected at 10 ul/min flow rate to capture approximately 100 RU at 3 different flow cells (FC), except for FC1 (reference), and then 5-fold serial dilutions of anti-HtrA1 Fab in HBS-P buffer (0.01M HEPES pH 7.4, 0.15M NaCl, 0.005% surfactant P20) from low (0.48 nM) to high (300 nM) [5 points] were injected (flow rate: 30 μl/min) one after the other in the same cycle with no regeneration between injections. The sensorgram was recorded and subject to reference and buffer subtraction before evaluation by BIAcore™ T100 Evaluation Software (version 2.0). Association rates (km) and dissociation rates (koff) were calculated using a simple one-to-one Langmuir binding model. The equilibrium dissociation constant (Kd) was calculated as the ratio koff/kₒₙ.

[12] = biological target: T8, Full length human HtrA1 (HuHtrA1) …; test: SPR (BIAcore T100), single-cycle kinetics, biotinylated human HtrA1 captured on streptavidin, Fab in solution
Source text: as §1, §2

[13] = biological target: T8, Full length human HtrA1 (HuHtrA1) …; test: phage competition ELISA: Fab-phage pre-incubated with serially diluted soluble HuHtrA1 (x axis), unbound phage captured on HuHtrA1-coated plate
Procedure: (§3) MAXISORP™ microtiter plates were coated with HuHtrA1 at 2 μg/ml in PBS for 2 hr at RT and then blocked with PBST buffer for another hour at RT. Purified phage from culture supernatants were incubated with serially diluted HuHtrA1 or MuHtrA1 in PBST buffer in a tissue-culture microtiter plate for an hour, after which 80 μl of the mixture was transferred to the HuHtrA1-coated wells for 15 minutes to capture unbound phage. The plate was washed with PBT buffer, and HRP-conjugated anti-M13 (Amersham Pharmacia Biotech) was added (1:5000 in PBST buffer) for one hour. The plate was washed with PBT buffer and developed by adding tetramethylbenzidine substrate (Kirkegaard and Perry Laboratories, Gaithersburg, Md.). The absorbance at 450 nm was plotted as a function of HuHtrA1 or MuHtrA1 concentration in solution to determine phage IC₅₀.

[14] = biological target: T7, Full length murine HtrA1 (MuHtrA1) …; test: phage competition ELISA: Fab-phage pre-incubated with serially diluted soluble MuHtrA1 (x axis), unbound phage captured on HuHtrA1-coated plate
Procedure: as §3

| Binder | fold reduction in binding (alanine mutant) [1] [fold] | fold reduction in binding (alanine mutant) [2] [fold] | fold reduction in binding (alanine mutant) [3] [fold] | fold reduction in binding (alanine mutant) [4] [fold] | fold reduction in binding (alanine mutant) [5] [fold] | fold reduction in binding (alanine mutant) [6] [fold] | IC50, inhibition of BODIPY FL casein hydrolysis [7] [nM] | IC50, inhibition of BODIPY FL casein hydrolysis [8] [nM] | IC50, inhibition of H2-Opt peptide hydrolysis (FRET assay) [8] [nM] | fold increase in inhibitory potency of IgG94 vs. Fab94 [8] [fold] | IC50, inhibition of H2-Opt hydrolysis (FRET assay, 1.5 nM HuHtrA1_PD) [9] [nM] | IC50, inhibition of H2-Opt hydrolysis (FRET assay, 1.0 nM HuHtrA1) [10] [nM] | Kd [11] [nM] | koff [11] [s⁻¹] | kon [11] [M⁻¹ s⁻¹] | Kd [12] [nM] | koff [12] [s⁻¹] | kon [12] [M⁻¹ s⁻¹] | IC50 (read off the curve) [13] [nM] | IC50 (read off the curve) [14] [nM] |
| --- | --- | --- | --- | --- | --- | --- | --- | --- | --- | --- | --- | --- | --- | --- | --- | --- | --- | --- | --- | --- |
| B1 | ≥ 5 | ≥ 5 | ≥ 5 | ≥ 5 | ≥ 5 | ≥ 5 | 5.4 | 8.3 | 1.8 | ~16 | – | – | – | – | – | – | – | – | – | – |
| B2 | – | – | – | – | – | – | – | – | – | – | 0.229 | 0.335 | – | – | – | – | – | – | – | – |
| B3 | – | – | – | – | – | – | – | – | – | – | – | – | 58 | 0.0856 | 1.48e+06 | 55 | 0.0448 | 813000 | ~6 | – |
| B4 | – | – | – | – | – | – | – | – | – | – | – | – | 1.6 | 0.00455 | 2.82e+06 | 2.6 | 0.00784 | 2.97e+06 | ~0.5 | ~2 |
| B5 | – | – | – | – | – | – | – | – | – | – | 2.03 | 1.95 | 4.6 | 0.0093 | 2.02e+06 | 3.4 | 0.00574 | 1.69e+06 | – | – |
